Data as given in patent US20050143559.
Like-named read-outs stand apart in the source and are kept apart here.

How the values were obtained:
[1] = test system: tryparedoxin peroxidase isolated from Crithidia fasciculata
[2] = target: tryparedoxin peroxidase isolated from Crithidia fasciculata; remark: listed apart in the source

Molecule	specific activity (coupled NADPH consumption assay) [1]	specific activity (coupled NADPH consumption assay) [2]
authentic tryparedoxin I isolated from Crithidia fasciculata	2.3 U/mg for the authentic enzyme	
TQSLPSSFLASLEHHHHHH [recombinant tryparedoxin II containing a His tag (expressed from pET/TXN II H6 in E. coli BL21(DE3))]		7.7 U/mg
